Here are results for 6 molecules from article PMC9278407, “Structure and regulation of the nuclear exosome targeting complex guides RNA substrates to the exosome” (Molecular Cell, 2022).

Data set [1] deals with T1, MTR4 (full length) (human, UniProt P42285 1-1042).
T1 construct: MTR4, human, full length; also called MTR4A; MTR4B; not shown: His6, N-terminal, cleaved; GST, N-terminal, cleaved
T1 sequence (looked up): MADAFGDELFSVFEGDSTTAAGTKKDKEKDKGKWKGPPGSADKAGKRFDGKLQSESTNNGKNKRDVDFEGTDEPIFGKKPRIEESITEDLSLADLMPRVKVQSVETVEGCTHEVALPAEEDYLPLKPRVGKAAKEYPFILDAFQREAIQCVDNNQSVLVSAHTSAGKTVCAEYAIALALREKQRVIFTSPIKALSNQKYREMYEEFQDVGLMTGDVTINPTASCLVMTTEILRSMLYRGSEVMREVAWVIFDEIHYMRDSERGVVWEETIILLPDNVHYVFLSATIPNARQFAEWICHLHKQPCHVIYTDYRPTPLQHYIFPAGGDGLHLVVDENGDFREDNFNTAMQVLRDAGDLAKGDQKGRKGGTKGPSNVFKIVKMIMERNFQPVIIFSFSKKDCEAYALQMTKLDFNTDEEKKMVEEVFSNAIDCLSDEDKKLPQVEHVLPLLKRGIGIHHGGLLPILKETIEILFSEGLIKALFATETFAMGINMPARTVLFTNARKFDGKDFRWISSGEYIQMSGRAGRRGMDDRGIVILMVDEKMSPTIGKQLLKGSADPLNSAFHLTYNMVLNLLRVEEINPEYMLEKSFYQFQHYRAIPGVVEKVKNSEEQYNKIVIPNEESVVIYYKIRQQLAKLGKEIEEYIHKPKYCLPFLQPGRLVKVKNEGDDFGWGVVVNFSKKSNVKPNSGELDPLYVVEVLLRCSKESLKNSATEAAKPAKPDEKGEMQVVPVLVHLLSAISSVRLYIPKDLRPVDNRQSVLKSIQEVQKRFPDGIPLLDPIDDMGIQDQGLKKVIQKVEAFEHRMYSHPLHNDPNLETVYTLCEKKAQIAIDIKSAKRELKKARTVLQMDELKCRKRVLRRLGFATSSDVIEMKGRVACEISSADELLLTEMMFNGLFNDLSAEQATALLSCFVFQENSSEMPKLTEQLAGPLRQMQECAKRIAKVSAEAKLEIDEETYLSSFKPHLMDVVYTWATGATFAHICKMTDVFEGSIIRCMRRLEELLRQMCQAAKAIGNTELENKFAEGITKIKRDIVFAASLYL
Kind of data set: SEC; pre-assembled complexes of full-length MTR4, RBM7(RRM) and N-terminally truncated ZCCHC8 constructs ending at 337; Superdex 200 Increase 3.2/300; 20 mM Hepes-NaOH pH 7.5, 150 mM NaCl, 2 mM DTT; 300 pmol in 30 μL injected; peak fractions on SDS-PAGE. Conditions: both partners purified. For orientation: Size exclusion chromatography separates by hydrodynamic size, large species first.

Data set [2] deals with the molecule itself. The description is as above.
Data set [3] concerns the target T2, eYFP-(GS)3-MTR4(75-1042) (human, UniProt P42285 75-1042).
T2 chain: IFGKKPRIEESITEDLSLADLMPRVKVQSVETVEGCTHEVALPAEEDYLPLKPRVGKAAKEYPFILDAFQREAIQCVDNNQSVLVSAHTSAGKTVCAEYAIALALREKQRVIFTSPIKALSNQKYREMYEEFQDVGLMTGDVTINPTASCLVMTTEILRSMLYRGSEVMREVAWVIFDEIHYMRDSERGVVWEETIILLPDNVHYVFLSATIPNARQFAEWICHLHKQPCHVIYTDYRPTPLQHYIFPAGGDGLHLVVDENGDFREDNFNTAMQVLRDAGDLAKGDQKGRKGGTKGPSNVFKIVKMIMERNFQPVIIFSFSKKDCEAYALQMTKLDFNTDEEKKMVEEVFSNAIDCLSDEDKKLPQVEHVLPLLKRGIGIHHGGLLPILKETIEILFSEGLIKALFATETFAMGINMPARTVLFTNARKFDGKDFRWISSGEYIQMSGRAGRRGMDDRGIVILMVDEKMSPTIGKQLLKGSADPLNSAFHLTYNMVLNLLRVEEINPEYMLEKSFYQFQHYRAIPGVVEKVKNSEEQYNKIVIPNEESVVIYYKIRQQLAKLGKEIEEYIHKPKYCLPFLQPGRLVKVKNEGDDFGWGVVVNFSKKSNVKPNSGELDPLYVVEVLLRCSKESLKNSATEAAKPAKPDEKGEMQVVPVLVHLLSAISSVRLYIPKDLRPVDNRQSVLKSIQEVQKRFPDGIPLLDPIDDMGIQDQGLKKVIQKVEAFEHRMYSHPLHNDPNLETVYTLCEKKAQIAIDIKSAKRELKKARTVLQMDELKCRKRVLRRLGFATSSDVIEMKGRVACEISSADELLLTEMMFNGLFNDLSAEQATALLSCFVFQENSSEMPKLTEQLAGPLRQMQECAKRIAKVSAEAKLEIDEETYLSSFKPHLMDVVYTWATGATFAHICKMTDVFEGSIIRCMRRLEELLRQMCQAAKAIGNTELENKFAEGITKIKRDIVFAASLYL
Kind of data set: MST.

The target in data set [4] is T3, eYFP-(GS)3-MTR4(75-1042) (human, UniProt P42285 75-1042).
T3 construct: MTR4, human, residues 75-1042, joined to eYFP by a (GS)3 linker; also called eYFP-tagged MTR4; source: E. coli BL21 Star (DE3) pRARE, purified; not shown: eYFP, N-terminal, kept
T3 sequence (looked up): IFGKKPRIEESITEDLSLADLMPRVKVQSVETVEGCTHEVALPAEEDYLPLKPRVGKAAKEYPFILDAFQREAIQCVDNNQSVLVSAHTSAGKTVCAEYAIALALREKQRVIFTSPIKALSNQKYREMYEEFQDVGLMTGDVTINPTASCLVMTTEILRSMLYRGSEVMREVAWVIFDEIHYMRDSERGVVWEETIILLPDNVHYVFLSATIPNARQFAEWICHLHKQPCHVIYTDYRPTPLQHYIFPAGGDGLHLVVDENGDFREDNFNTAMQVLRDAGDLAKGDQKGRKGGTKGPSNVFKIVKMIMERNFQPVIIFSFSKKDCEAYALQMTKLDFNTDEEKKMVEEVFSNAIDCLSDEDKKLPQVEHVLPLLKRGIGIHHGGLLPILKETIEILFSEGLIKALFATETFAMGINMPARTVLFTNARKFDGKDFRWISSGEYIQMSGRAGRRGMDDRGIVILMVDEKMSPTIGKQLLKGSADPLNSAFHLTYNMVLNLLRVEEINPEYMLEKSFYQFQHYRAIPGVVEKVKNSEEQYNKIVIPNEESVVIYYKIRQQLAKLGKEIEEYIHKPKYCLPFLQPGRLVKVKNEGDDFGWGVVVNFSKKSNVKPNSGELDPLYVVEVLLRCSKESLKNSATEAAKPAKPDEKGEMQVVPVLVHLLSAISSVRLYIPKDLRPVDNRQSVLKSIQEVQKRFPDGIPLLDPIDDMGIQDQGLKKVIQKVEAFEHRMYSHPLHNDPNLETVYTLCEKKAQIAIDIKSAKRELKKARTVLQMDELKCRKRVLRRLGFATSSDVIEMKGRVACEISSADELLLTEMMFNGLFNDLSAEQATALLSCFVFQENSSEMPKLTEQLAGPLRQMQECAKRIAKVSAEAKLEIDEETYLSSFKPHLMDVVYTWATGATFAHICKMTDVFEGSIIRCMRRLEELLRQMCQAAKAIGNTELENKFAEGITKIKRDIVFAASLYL
As to the kind of experiment: MST; eYFP-(GS)3-MTR4(75-1042) fixed at 50 nM, increasing ZCCHC8/RBM7; 50 mM HEPES-NaOH pH 7.5, 150 mM NaCl, 2 mM DTT, 10% glycerol, 0.1% Pluronic F-127; room temperature; triplicates. Conditions: both partners purified.

The target in data set [5] is T1, MTR4 (full length). Kind of data set: cryo-EM structure; NEXT^S at 15 μM with 1.2 molar excess RNA-U20 and 2 mM AMPPNP, 20 mM HEPES-NaOH pH 7.5, 150 mM NaCl, 2 mM DTT, 2 mM MgCl2; cross-linked with 1 mM BS3. Particulars: both partners purified.
Data set [6] concerns the molecule itself. Described as above.
Data set [7] addresses T1, MTR4 (full length). Kind of data set: cryo-EM structure; NEXT^L at 2 μM with equimolar 5'-hairpin-U60 RNA and 2 mM AMPPNP, 20 mM HEPES-NaOH pH 7.5, 50 mM NaCl, 2 mM DTT, 2 mM MgCl2; cross-linked with 0.03% glutaraldehyde. Conditions: both partners purified.

B1: ZCCHC8 (residues 91-337) (domain or fragment, human, UniProt Q6NZY4 91-337, looked up)
chain: DGPILQILFMNNAISKQYHQEIEEFVSNLVKRFEEQQKNDVEKTSFNLLPQPSSIVLEEDHKVEESCAIKNNKEAFSVVGSVLYFTNFCLDKLGQPLLNENPQLSEGWEIPKYHQVFSHIVSLEGQEIQVKAKRPKPHCFNCGSEEHQMKDCPMPRNAARISEKRKEYMDACGEANNQNFQQRYHAEEVEERFGRFKPGVISEELQDALGVTDKSLPPFIYRMRQLGYPPGWLKEAELENSGLALYD
notes: source: E. coli BL21 Star (DE3) pRARE, co-expressed and co-purified with RBM7(1-98); not shown: His6, N-terminal, cleaved; GST or SUMO, N-terminal, cleaved
B1: the binding result (with MTR4 (full length) [1]; in data set [2]) was “binds” in each case.

B2: ZCCHC8 (residues 177-337) (domain or fragment, human, UniProt Q6NZY4 177-337, looked up)
chain: NFCLDKLGQPLLNENPQLSEGWEIPKYHQVFSHIVSLEGQEIQVKAKRPKPHCFNCGSEEHQMKDCPMPRNAARISEKRKEYMDACGEANNQNFQQRYHAEEVEERFGRFKPGVISEELQDALGVTDKSLPPFIYRMRQLGYPPGWLKEAELENSGLALYD
notes: source: E. coli BL21 Star (DE3) pRARE, co-expressed and co-purified with RBM7(1-98); not shown: His6, N-terminal, cleaved; GST, N-terminal, cleaved
As for B2, the binding result with MTR4 (full length) [1] was “binds”.

B3: dimeric ZCCHC8(41-337)/RBM7(RRM) (complex)
chain 1: ENGVGDAELRERLRQCEETIEQLRAENQELKRKLNILTRPSGILVNDTKLDGPILQILFMNNAISKQYHQEIEEFVSNLVKRFEEQQKNDVEKTSFNLLPQPSSIVLEEDHKVEESCAIKNNKEAFSVVGSVLYFTNFCLDKLGQPLLNENPQLSEGWEIPKYHQVFSHIVSLEGQEIQVKAKRPKPHCFNCGSEEHQMKDCPMPRNAARISEKRKEYMDACGEANNQNFQQRYHAEEVEERFGRFKPGVISEELQDALGVTDKSLPPFIYRMRQLGYPPGWLKEAELENSGLALYD
chain 2: MGAAAAEADRTLFVGNLETKVTEELLFELFHQAGPVIKVKIPKDKDGKPKQFAFVNFKHEVSVPYAMNLLNGIKLYGRPIKIQFRSGSSHAPQDVSLS
As a reminder, the Kd is the constant that tells how readily two partners part at equilibrium. Lower therefore signals higher affinity. Consider B3, for which, in the data set with eYFP-(GS)3-MTR4(75-1042) [3], the Kd amounted to 120 nM.

B4: monomeric ZCCHC8(177-337)/RBM7(RRM) (complex, human)
chain 1: NFCLDKLGQPLLNENPQLSEGWEIPKYHQVFSHIVSLEGQEIQVKAKRPKPHCFNCGSEEHQMKDCPMPRNAARISEKRKEYMDACGEANNQNFQQRYHAEEVEERFGRFKPGVISEELQDALGVTDKSLPPFIYRMRQLGYPPGWLKEAELENSGLALYD
chain 2: MGAAAAEADRTLFVGNLETKVTEELLFELFHQAGPVIKVKIPKDKDGKPKQFAFVNFKHEVSVPYAMNLLNGIKLYGRPIKIQFRSGSSHAPQDVSLS
notes: RBM7, human, residues 1-98 with the RRM domain; also called monomeric ZCCHC8-RBM7 unit; source: E. coli BL21 Star (DE3) pRARE, co-expressed and co-purified; not shown: His6, N-terminal, cleaved; GST, N-terminal, cleaved; Z tag or SUMO, N-terminal, cleaved; copies: 1 + 1
Take B4: in the data set with eYFP-(GS)3-MTR4(75-1042) [3], the Kd turned out to be 540 nM. For the same molecule, in the data set with eYFP-(GS)3-MTR4(75-1042) [4], the binding result is given as “binds”.

B5: ZCCHC8 (residues 41-337) (domain or fragment, human, UniProt Q6NZY4 41-337, looked up)
chain: ENGVGDAELRERLRQCEETIEQLRAENQELKRKLNILTRPSGILVNDTKLDGPILQILFMNNAISKQYHQEIEEFVSNLVKRFEEQQKNDVEKTSFNLLPQPSSIVLEEDHKVEESCAIKNNKEAFSVVGSVLYFTNFCLDKLGQPLLNENPQLSEGWEIPKYHQVFSHIVSLEGQEIQVKAKRPKPHCFNCGSEEHQMKDCPMPRNAARISEKRKEYMDACGEANNQNFQQRYHAEEVEERFGRFKPGVISEELQDALGVTDKSLPPFIYRMRQLGYPPGWLKEAELENSGLALYD
notes: also called ZCCHC8^S; not shown: His6, N-terminal, cleaved; GST, N-terminal, cleaved
The term stoichiometry N denotes the number of molecules, sites or subunits per partner or assembly. For the molecule B5, the binding result in the data set with MTR4 (full length) [5] is recorded as “binds”. In addition, the “stoichiometry N” value in data set [6] is 2.

B6: ZCCHC8 deletion mutant Δ416-506 (natural protein, human)
chain: MAAEVYFGDLELFEPFDHPEESIPKPVHTRFKDDDGDEEDENGVGDAELRERLRQCEETIEQLRAENQELKRKLNILTRPSGILVNDTKLDGPILQILFMNNAISKQYHQEIEEFVSNLVKRFEEQQKNDVEKTSFNLLPQPSSIVLEEDHKVEESCAIKNNKEAFSVVGSVLYFTNFCLDKLGQPLLNENPQLSEGWEIPKYHQVFSHIVSLEGQEIQVKAKRPKPHCFNCGSEEHQMKDCPMPRNAARISEKRKEYMDACGEANNQNFQQRYHAEEVEERFGRFKPGVISEELQDALGVTDKSLPPFIYRMRQLGYPPGWLKEAELENSGLALYDGKDGTDGETEVGEIQQNKSVTYDLSKLVNYPGFNISTPRGIPDEWRIFGSIPMQACQQKDVFANYLTSNFQAPGVKSGSGAVDEDALTLEELEEQQRRIWAALEQAESVNSDSDVPVDTPLTGNSVASSPCPNELDLPVPEGKTSEKQTLDEPEVPEIFTKKSEAGHASSPDSEVTSLCQKEKAELAPVNTEGALLDNGSVVPNCDISNGGSQKLFPADTSPSTATKIHSPIPDMSKFATGITPFEFENMAESTGMYLRIRSLLKNSPRNQQKNKKASE
notes: ZCCHC8, human, deletion mutant lacking residues 416-506 but still including the C-terminal domain; Construct adapted from Puno and Lima (2018); also called ZCCHC8^L; hZCCHC8(Δ416-506); source: E. coli BL21 Star (DE3) pRARE, co-expressed and co-purified with RBM7(1-98); not shown: His6, N-terminal, cleaved; SUMO, N-terminal, cleaved
As to B6, the binding result with MTR4 (full length) [7] is “binds”.
